For two molecules, Abs450 results are on record in patent US20220267427A1 (SYSMEX, published 2022).

Where no end group is shown, it is not given here. The star is where a group is joined. Biotin = O=C1N[C@H]2[C@H](CS[C@H]2CCCCC(=O)*)N1

Common to all, as to experiment: solid phase ELISA; biotinylated peptide on plate, antibody 2 ug/ml
Background: An ELISA detects its analyte on a solid surface through an enzyme-linked reagent.

Experiment [1] has as its target T1, Peptide 3 (human).
T1 peptide: Biotin-APKSQDLAKIMADIRAQY
As to the method: (§1) (1) The peptides shown in Table 2 were synthesized, and biotin was added to the N-terminal side. (2) The synthesized peptides were dissolved in 80% DMSO solution and further diluted to 1 μg/ml with PBST. (3) After washing an ELISA plate three times with PBST, a biotinylated peptide was added thereto at 100 μL/well, and the plate was allowed to stand at room temperature for 1 hour to immobilize the peptide. Thereafter, the plate was washed three times with PBST, and Buffer I′ (10 mM NaH₂PO₄.2H₂O, 149.7 mM NaCl, 2.5 mM EDTA 2Na, 0.10% BSA, pH 7.0) was added thereto at 200 μL/well to prepare a plate stored at 4° C. overnight. (4) The plate was washed three times with PBST, and an antibody diluted to 2 μg/ml was added thereto at 50 μL/well, followed by shaking at room temperature for 1 hour. (5) The plate was washed three times with PBST, and an Anti-Mouse IgG POD antibody diluted about 5000 fold with Buffer I′ (10 mM NaH₂PO₄.2H₂O, 149.7 mM NaCl, 2.5 mM EDTA 2Na, 0.10% BSA, pH 7.0) was added thereto at 50 μL/well, followed by shaking at room temperature for 1 hour. (6) The plate was washed three times with PBST, TMB Mix (1-step Ultra TMB-ELISA (Thermo Scientific):3% H₂O₂: Phosphate-Citrate buffer (Sigma)=15:0.15:14.85) was added thereto at 100 μL/well, and the mixture was reacted at room temperature for 10 minutes. Thereafter, 1 M H₂SO₄ was added thereto at 100 μL/well to stop the reaction. (7) Absorbance of the reaction solution at 450 nm was measured with a plate reader.

For experiment [2], the target named is T2, Peptide 4 (human).
T2 peptide: Biotin-LAKIMADIRAQYDELARK
As to the method: as §1

In experiment [3] the target is T3, Peptide 5 (human).
T3 peptide: Biotin-DIRAQYDELARKNREELD
As to the method: as §1

In experiment [4] the target is Peptide 6 (human, biotin added to the N-terminal side). The method, then:
as §1

For experiment [5], the target named is T4, Peptide 7 (human).
T4 peptide: Biotin-NREELDKYWSQQIEESTT
As to the method:
as §1

For experiment [6], the target named is Peptide 8 (human, biotin added to the N-terminal side). The method, then:
as §1

In experiment [7] the target is T5, Peptide 9 (human).
T5 peptide: Biotin-IEESTTVVTTQSAEVGAA
The method, then:
as §1

For experiment [8], the target named is T6, Peptide 10 (human).
T6 peptide: Biotin-VVTTQSAEVGAAETTLTE
As to the method:
as §1

Experiment [9] addresses T7, Peptide 11 (human).
T7 peptide: Biotin-AEVGAAETTLTELRRTVQ
As to the method: as §1

The target in experiment [10] is T8, Peptide 12 (human).
T8 peptide: Biotin-ETTLTELRRTVQSLEIDL
The method, then:
as §1

Experiment [11] deals with T9, Peptide 13 (human).
T9 peptide: Biotin-LRRTVQSLEIDLDSMRNL
As to the method: as §1

Experiment [12] has as its target T10, Peptide 14 (human).
T10 peptide: Biotin-SLEIDLDSMRNLKASLEN
As to the method:
as §1

Experiment [13] has as its target T11, Peptide 15 (human).
T11 peptide: Biotin-DSMRNLKASLENSLREVE
The method, then: as §1

Experiment [14] has as its target T12, Peptide 16 (human).
T12 peptide: Biotin-KASLENSLREVEARYALQ
As to the method: as §1

Experiment [15] has as its target T13, Peptide 17 (human).
T13 peptide: Biotin-SLREVEARYALQMEQLNG
The method, then:
as §1

Experiment [16] addresses T14, Peptide 18 (human).
T14 peptide: Biotin-ARYALQMEQLNGILLHLE
As to the method: as §1

Experiment [17] addresses T15, Peptide 25 (human).
T15 peptide: Biotin-VKLEAEIATYRRLLEDGE
The method, then:
as §1

The target in experiment [18] is T16, Peptide 26 (human).
T16 peptide: Biotin-IATYRRLLEDGEDFNLGD
The method, then:
as §1

The target of experiment [19] is T17, Peptide 27 (human).
T17 peptide: Biotin-LLEDGEDFNLGDALD
The method, then:
as §1

B1: K18-328 antibody (antibody, V domains shown)
VH: QVHLQQSAAELARPGASVKMSCKASGYTFTNYTIHWIKQRPGQGLEWIGYINPSSGYTDYNQNFKDKTTLTADKSSTTVYMQLSSLTSEDSAVYYCARQIPFAYWGQGTLVTVSA
VL: not shown
notes: Mouse monoclonal antibody from a hybridoma (immunogen full length rCK18)
Turning to B1, the Abs450 in experiment [1] was 0.04; in [2] it was 0.01; in [3], -0.01; in [4] it was 0.01; in [5] it was 0; in experiment [6], -0.01. Further, the Abs450 is -0.01 in [7]; 0 in [8]; 0.01 in experiment [9]; 0 in experiment [10]; 0.01 in [11]; -0.01 in experiment [12]. The Abs450 is 0 in experiment [13], 0.04 in experiment [14], 1.55 in experiment [15] and 0.02 in experiment [16].

B2: K18-624 antibody (antibody, V domains shown)
VH: DVQLVESGGGLVQPGGSRKLSCAASGFTFSSFGMHWVRQAPEKGLEWVAYISSGSTTIYYADTVKGRFTISRDNPKNTLFLQMTSLRSEDTAMYYCARRGMITTGAWFAYWGQGTLVTVSA
VL: DILLTQSPAILSVSPGERVSFSCRASQRIGTSIHWYQQRTNGSPRLLIKYASESISGIPSRFSGSGSGTDFTLSINSVESEDIADYYCQQSYIWPFTFGSGTKLEIK
notes: Mouse monoclonal antibody from a hybridoma (Balb/C mouse immunised with Peptide 1-KLH)
As for B2, the Abs450 in experiment [17] was 0.14; in [18], 0.14; in experiment [19] it was 2.34.
